The target in this test is Skeletal muscle actin (F-actin) (rabbit) (UniProt P68135).
Consider “M761-2R (761-aa wild-type Dictyostelium myosin II catalytic domain fused to two α-actinin repeats) (from UniProt P08799 1-761)”, for which the actin-activated Mg-ATPase: K (ATPase) (the actin concentration giving V=Vmax/2) worked out at 59 µM and the actin-activated Mg-ATPase: Vmax/K (ATPase) (catalytic efficiency) was 130000 M⁻¹ s⁻¹.
Turning to “Muscle S1 (skeletal muscle myosin II subfragment 1) (domain or fragment)”, the actin-activated Mg-ATPase: K (ATPase) (the actin concentration giving V=Vmax/2) was 15.8 µM and the actin-activated Mg-ATPase: Vmax/K (ATPase) (catalytic efficiency) turned out to be 1.23e+06 M⁻¹ s⁻¹.
On the same counts, the results for “S619C-IQ (S619C construct extended to include one IQ domain) (from UniProt P08799 1-790) (domain or fragment)” are 17.3 µM and 180000 M⁻¹ s⁻¹.

Values taken from paper PMC3600821.
